What was measured:
[1] = target: T1, condensin hinge (Smc2/Smc4 hinge heterodimer) (Saccharomyces cerevisiae, UniProt P38989;Q12267 396-792;555-951); assay: fluorescence polarization; 20 nM DNA; 5 mM MgCl2; EMSA: 50 mM Tris-HCl pH 7.5, 50 mM KCl, 125 mM NaCl, 5 mM MgCl2, 5% glycerol, 1 mM DTT, 10 min on ice, gel at 4 C; FP: 25 mM Tris-HCl pH 7.5, 100 mM NaCl, 5 mM; conditions: protein: recombinant; tags: N-terminal His6-TEV on Smc2; Smc4 untagged; copies: 1;1; label: 5' 6-FAM on strand 1; blunt
T1 sequence 1: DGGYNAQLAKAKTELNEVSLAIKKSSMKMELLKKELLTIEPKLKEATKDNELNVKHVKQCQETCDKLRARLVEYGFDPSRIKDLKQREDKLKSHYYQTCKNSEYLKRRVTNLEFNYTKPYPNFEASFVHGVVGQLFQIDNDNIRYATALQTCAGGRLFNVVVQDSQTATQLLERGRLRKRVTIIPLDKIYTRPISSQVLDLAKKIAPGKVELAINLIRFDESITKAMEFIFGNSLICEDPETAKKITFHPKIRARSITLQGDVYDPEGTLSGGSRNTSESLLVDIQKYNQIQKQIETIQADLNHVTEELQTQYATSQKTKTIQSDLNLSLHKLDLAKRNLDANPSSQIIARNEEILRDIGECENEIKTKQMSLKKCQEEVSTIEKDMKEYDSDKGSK
T1 sequence 2: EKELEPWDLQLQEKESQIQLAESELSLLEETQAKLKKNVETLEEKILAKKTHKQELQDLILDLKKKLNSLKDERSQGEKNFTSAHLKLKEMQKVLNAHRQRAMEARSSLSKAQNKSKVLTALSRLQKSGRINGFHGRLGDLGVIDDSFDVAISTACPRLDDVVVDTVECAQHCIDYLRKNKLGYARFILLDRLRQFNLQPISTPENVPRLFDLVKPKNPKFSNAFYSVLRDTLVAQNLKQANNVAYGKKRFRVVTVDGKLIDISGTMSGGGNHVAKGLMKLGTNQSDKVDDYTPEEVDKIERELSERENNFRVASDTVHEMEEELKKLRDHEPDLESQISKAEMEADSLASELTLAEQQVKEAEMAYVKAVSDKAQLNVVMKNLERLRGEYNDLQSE

[2] = target: T1, condensin hinge (Smc2/Smc4 hinge …); assay: EMSA; 10 nM DNA; 5 mM MgCl2; Fig. 2c legend gives 0.2-0.3 uM and a 25 bp oligo; EMSA: 50 mM Tris-HCl pH 7.5, 50 mM KCl, 125 mM NaCl, 5 mM MgCl2, 5% glycerol, 1 mM DTT, 10 min on ice, gel at 4 C; FP: 25 mM Tris-HCl pH 7.5, 100 mM NaCl, 5 mM; conditions: protein: recombinant; tags: N-terminal His6-TEV on Smc2; Smc4 untagged; copies: 1;1; label: 5' 6-FAM on strand 1; blunt

B1: 6-FAM 50-bp dsDNA (dsDNA)
DNA 1: GGATACGTAACAACGCTTATGCATCGCCGCCGCTACATCCCTGAGCTGAC
DNA 2: GTCAGCTCAGGGATGTAGCGGCGGCGATGCATAAGCGTTGTTACGTATCC
B1 gave a Kd [1] of roughly 700 nM and a Kd [2] of roughly 141 nM.

Source: paper doi:10.1101/2025.06.04.657969, “Complex rheology of condensin in entangled DNA”
